Tested on: Abp1 PPIs
Experiment: DHFR-PCA of Abp1 SH3-swapped baits (Fig. 2B-D, S2C, S2F);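 for Protein-protein interaction distance between Abp1 SH3-swapped baits, to ABP1: Euclidean distance between DHFR-PCA score profiles of the baits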;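 for Protein-protein interaction distance between Abp1 SH3-swapped baits, to BEM1-2: Euclidean distance between DHFR-PCA score profiles of the baits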;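 for Protein-protein interaction distance between Abp1 SH3-swapped baits, to BOI1: Euclidean distance between DHFR-PCA score profiles of the baits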;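 for Protein-protein interaction distance between Abp1 SH3-swapped baits, to BZZ1-1: Euclidean distance between DHFR-PCA score profiles of the baits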
Type: cell-based, Saccharomyces cerevisiae
Conditions: sheet Fig2C; for Protein-protein interaction distance between Abp1 SH3-swapped baits, to ABP1: Abp1 bait with swapped SH3, distance to bait with ABP1 SH3; for Protein-protein interaction distance between Abp1 SH3-swapped baits, to BBC1: distance to Abp1 bait with BBC1 SH3; for Protein-protein interaction distance between Abp1 SH3-swapped baits, to BEM1-1: distance to Abp1 bait with BEM1-1 SH3; for Protein-protein interaction distance between Abp1 SH3-swapped baits, to BEM1-2: distance to Abp1 bait with BEM1-2 SH3; for Protein-protein interaction distance between Abp1 SH3-swapped baits, to BOI1: distance to Abp1 bait with BOI1 SH3; for Protein-protein interaction distance between Abp1 SH3-swapped baits, to BOI2: distance to Abp1 bait with BOI2 SH3; for Protein-protein interaction distance between Abp1 SH3-swapped baits, to BUD14: distance to Abp1 bait with BUD14 SH3; for Protein-protein interaction distance between Abp1 SH3-swapped baits, to BZZ1-1: distance to Abp1 bait with BZZ1-1 SH3; for Protein-protein interaction distance between Abp1 SH3-swapped baits, to BZZ1-2: distance to Abp1 bait with BZZ1-2 SH3; for Protein-protein interaction distance between Abp1 SH3-swapped baits, to CDC25: distance to Abp1 bait with CDC25 SH3; for Protein-protein interaction distance between Abp1 SH3-swapped baits, to CTTN: distance to Abp1 bait with CTTN SH3; for Protein-protein interaction distance between Abp1 SH3-swapped baits, to CYK3: distance to Abp1 bait with CYK3 SH3; for Protein-protein interaction distance between Abp1 SH3-swapped baits, to DBNL: distance to Abp1 bait with DBNL SH3; for Protein-protein interaction distance between Abp1 SH3-swapped baits, to FUS1: distance to Abp1 bait with FUS1 SH3; for Protein-protein interaction distance between Abp1 SH3-swapped baits, to HCLS1: distance to Abp1 bait with HCLS1 SH3; for Protein-protein interaction distance between Abp1 SH3-swapped baits, to HOF1: distance to Abp1 bait with HOF1 SH3; for Protein-protein interaction distance between Abp1 SH3-swapped baits, to HSE1: distance to Abp1 bait with HSE1 SH3; for Protein-protein interaction distance between Abp1 SH3-swapped baits, to LSB1: distance to Abp1 bait with LSB1 SH3; for Protein-protein interaction distance between Abp1 SH3-swapped baits, to LSB3: distance to Abp1 bait with LSB3 SH3; for Protein-protein interaction distance between Abp1 SH3-swapped baits, to MYO3: distance to Abp1 bait with MYO3 SH3; for Protein-protein interaction distance between Abp1 SH3-swapped baits, to MYO5: distance to Abp1 bait with MYO5 SH3; for Protein-protein interaction distance between Abp1 SH3-swapped baits, to NBP2: distance to Abp1 bait with NBP2 SH3; for Protein-protein interaction distance between Abp1 SH3-swapped baits, to PEX13: distance to Abp1 bait with PEX13 SH3; for Protein-protein interaction distance between Abp1 SH3-swapped baits, to PIN3: distance to Abp1 bait with PIN3 SH3; for Protein-protein interaction distance between Abp1 SH3-swapped baits, to RVS167: distance to Abp1 bait with RVS167 SH3; for Protein-protein interaction distance between Abp1 SH3-swapped baits, to SDC25: distance to Abp1 bait with SDC25 SH3; for Protein-protein interaction distance between Abp1 SH3-swapped baits, to SHO1: distance to Abp1 bait with SHO1 SH3; for Protein-protein interaction distance between Abp1 SH3-swapped baits, to SLA1-1: distance to Abp1 bait with SLA1-1 SH3; for Protein-protein interaction distance between Abp1 SH3-swapped baits, to SLA1-2: distance to Abp1 bait with SLA1-2 SH3; for Protein-protein interaction distance between Abp1 SH3-swapped baits, to SLA1-3: distance to Abp1 bait with SLA1-3 SH3; for Protein-protein interaction distance between Abp1 SH3-swapped baits, to YSC84: distance to Abp1 bait with YSC84 SH3
In short: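 Interactions were scored by DHFR protein-fragment complementation. DHFR F[1,2]-tagged Abp1 strains, whose SH3 was swapped for yeast or human ortholog domains, were crossed on YPD at 30 °C for 48 h with a 1536-format array of 575 prey-DHFR F[3] strains and 40 negatives, giving four replicates per pair. PCA selection lasted 4 days after double diploid selection.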

| Molecule | Protein-protein interaction distance between Abp1 SH3-swapped baits, to ABP1 | Protein-protein interaction distance between Abp1 SH3-swapped baits, to BBC1 | Protein-protein interaction distance between Abp1 SH3-swapped baits, to BEM1-1 | Protein-protein interaction distance between Abp1 SH3-swapped baits, to BEM1-2 | Protein-protein interaction distance between Abp1 SH3-swapped baits, to BOI1 | Protein-protein interaction distance between Abp1 SH3-swapped baits, to BOI2 | Protein-protein interaction distance between Abp1 SH3-swapped baits, to BUD14 | Protein-protein interaction distance between Abp1 SH3-swapped baits, to BZZ1-1 | Protein-protein interaction distance between Abp1 SH3-swapped baits, to BZZ1-2 | Protein-protein interaction distance between Abp1 SH3-swapped baits, to CDC25 | Protein-protein interaction distance between Abp1 SH3-swapped baits, to CTTN | Protein-protein interaction distance between Abp1 SH3-swapped baits, to CYK3 | Protein-protein interaction distance between Abp1 SH3-swapped baits, to DBNL | Protein-protein interaction distance between Abp1 SH3-swapped baits, to FUS1 | Protein-protein interaction distance between Abp1 SH3-swapped baits, to HCLS1 | Protein-protein interaction distance between Abp1 SH3-swapped baits, to HOF1 | Protein-protein interaction distance between Abp1 SH3-swapped baits, to HSE1 | Protein-protein interaction distance between Abp1 SH3-swapped baits, to LSB1 | Protein-protein interaction distance between Abp1 SH3-swapped baits, to LSB3 | Protein-protein interaction distance between Abp1 SH3-swapped baits, to MYO3 | other results |
| --- | --- | --- | --- | --- | --- | --- | --- | --- | --- | --- | --- | --- | --- | --- | --- | --- | --- | --- | --- | --- | --- |
| FUS1 (protein, UniProt P11710 1-512, looked up) Nuclear fusion protein FUS1: MVATIMQTTTTVLTTVAAMSTTLASNYISSQASSSTSVTTVTTIATSIRSTPSNLLFSNVAAQPKSSSASTIGLSIGLPIGIFCFGLLILLCYFYLKRNSVSISNPPMSATIPREEEYCRRTNWFSRLFWQSKCEDQNSYSNRDIEKYNDTQWTSGDNMSSKIQYKISKPIIPQHILTPKKTVKNPYAWSGKNISLDPKVNEMEEEKVVDAFLYTKPPNIVHIESSMPSYNDLPSQKTVSSKKTALKTSEKWSYESPLSRWFLRGSTYFKDYGLSKTSLKTPTGAPQLKQMKMLSRISKGYFNESDIMPDERSPILEYNNTPLDANDSVNNLGNTTPDSQITSYRNNNIDLITARPHSVIYGTTAQQTLETNFNDHHDCNKSTEKHELIIPTPSKPLKKRKKRRQSKMYQHLQHLSRSKPLPLTPNSKYNGEASVQLGKTYTVIQDYEPRLTDEIRISLGEKVKILATHTDGWCLVEKCNTQKGSIHVSVDDKRYLNEDRGIVPGDCLQEYD | 18.44 | 16.64 | 8.021 | 22.67 | 12.53 | 10.5 | 7.121 | 17.24 | 12.64 | 14.2 | 13.46 | 14.91 | 16.42 | 0.00 | 20.02 | 21.29 | 16.23 | 23.45 | 23.48 | 21.97 | Protein-protein interaction distance between Abp1 SH3-swapped baits, to MYO5: 21.47; Protein-protein interaction distance between Abp1 SH3-swapped baits, to NBP2: 8.037; Protein-protein interaction distance between Abp1 SH3-swapped baits, to PEX13: 21.37; Protein-protein interaction distance between Abp1 SH3-swapped baits, to PIN3: 21.08; Protein-protein interaction distance between Abp1 SH3-swapped baits, to RVS167: 19.5; Protein-protein interaction distance between Abp1 SH3-swapped baits, to SDC25: 24.28; Protein-protein interaction distance between Abp1 SH3-swapped baits, to SHO1: 16.07; Protein-protein interaction distance between Abp1 SH3-swapped baits, to SLA1-1: 17.65; Protein-protein interaction distance between Abp1 SH3-swapped baits, to SLA1-2: 8.845; Protein-protein interaction distance between Abp1 SH3-swapped baits, to SLA1-3: 23.5; Protein-protein interaction distance between Abp1 SH3-swapped baits, to YSC84: 23.88 |
| CYK3 (protein, UniProt Q07533 1-885, looked up) Cytokinesis protein 3: MATNLTSLKPPFKVKARYGWSGQTKGDLGFLEGDIMEVTRIAGSWFYGKLLRNKKCSGYFPHNFVILLEERLNSSTENGRQPSKIVESFEKSNKVVIPPVPSRYSDERPRPKKKLSSSMPNSPKKPVDSLTKARKAKSKEMVNEKNIYNTQSSRHHNNSAPNLPLASHSKPQVRNFEESMNNPLPPLPPLPDLDNMRKTDKRAPKKSYSANDLHMARSSREYNYYKDNQKFYDGFIPEKRYSLEEDSISSGLFSNSQYLNDSACSSENSFALMSDFSATSAGSFARHKYAQSFSDSLQRSQNANGCSTKINDSQEFGDSNASSRNGKMGDILRKIIIPKRNTNIYSSSVSSPKSPKAYPKLPDIQNLNLSATPDEARDWIAVKCHLNRARTLTKYDKHPRYMRALEENRDLILHPQDSIYNGLNTNEVKGNTKPGLVDVELAELNIEYIDKMTWKRCIRDGTMTLDSWAQTTFSARYSTVLEKLRGIYIFCTEMFALTDDNGTSDFSAEPQNLEKILYRKHCTPYELTWLFKKLANSLGITCEIVIGFLKTPSAINWEFKYNHCWLRILVNKEWRFIDVILGNVTNPIHEFVNNRKIKKAENSYFLMAPLEMIYTHIPPREFEQHIVPSIDQLSALYLPLVFPSFFKNELKLYKFSTALSFLEDSEIYECSLEIPNDVEVFASVVIPTDNEEASSAYRNMELALTQIKKQKAESGRRIALIKAVLPPNVNKGSLYIHSGVRGTQTSIANIHPLSMMVPLTHKGSNMKYEFVIKIPSESIQKIELYIVEPQSRYLFVGNEYSFEVIQSPSDGIVYSSDEGPNQNRKQPMAIKSPSGRVHELVKSDPHFPYGTWKGSIKIKEPGVWSALVIADSGIGWSVFAEWLCV | 26.78 | 25.11 | 17.6 | 11.87 | 21.68 | 20.06 | 16.1 | 26.08 | 22.45 | 5.497 | 21.37 | 0.00 | 25.11 | 14.91 | 28.59 | 10.8 | 25.16 | 31.53 | 31.13 | 30.11 | Protein-protein interaction distance between Abp1 SH3-swapped baits, to MYO5: 29.49; Protein-protein interaction distance between Abp1 SH3-swapped baits, to NBP2: 15.74; Protein-protein interaction distance between Abp1 SH3-swapped baits, to PEX13: 29.86; Protein-protein interaction distance between Abp1 SH3-swapped baits, to PIN3: 28.76; Protein-protein interaction distance between Abp1 SH3-swapped baits, to RVS167: 28.09; Protein-protein interaction distance between Abp1 SH3-swapped baits, to SDC25: 15.21; Protein-protein interaction distance between Abp1 SH3-swapped baits, to SHO1: 24.75; Protein-protein interaction distance between Abp1 SH3-swapped baits, to SLA1-1: 5.436; Protein-protein interaction distance between Abp1 SH3-swapped baits, to SLA1-2: 14.43; Protein-protein interaction distance between Abp1 SH3-swapped baits, to SLA1-3: 31.65; Protein-protein interaction distance between Abp1 SH3-swapped baits, to YSC84: 31.42 |

— article PMC7954794, “Protein context shapes the specificity of SH3 domain-mediated interactions in vivo” (Nature Communications, 2021)
